Key:
[1] = molecular target: T1, DRS (Aspartyl-tRNA synthetase), purified recombinant (UniProt P14868 1-501, limits assumed); experiment: Luminex multiplex bead assay, antigen coupled to beads, relative to CRS
T1 construct: also called 아스파틸-tRNA 합성효소
T1 sequence (looked up): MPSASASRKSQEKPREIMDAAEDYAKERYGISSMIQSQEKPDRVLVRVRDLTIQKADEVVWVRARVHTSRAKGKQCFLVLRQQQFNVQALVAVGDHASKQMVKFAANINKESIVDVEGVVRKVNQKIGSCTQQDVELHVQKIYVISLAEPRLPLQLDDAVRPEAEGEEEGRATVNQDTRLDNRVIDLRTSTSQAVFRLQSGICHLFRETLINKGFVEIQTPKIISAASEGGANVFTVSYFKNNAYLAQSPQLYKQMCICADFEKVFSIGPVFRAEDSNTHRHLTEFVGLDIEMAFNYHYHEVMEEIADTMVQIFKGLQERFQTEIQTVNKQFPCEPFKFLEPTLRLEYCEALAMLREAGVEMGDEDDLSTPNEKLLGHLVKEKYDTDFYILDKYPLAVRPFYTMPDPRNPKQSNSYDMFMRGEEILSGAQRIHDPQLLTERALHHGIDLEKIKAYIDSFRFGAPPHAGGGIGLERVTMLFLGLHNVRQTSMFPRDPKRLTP

[2] = molecular target: T2, EPRS WHEP domain (Glutamyl-prolyl tRNA synthetase), purified recombinant (UniProt P07814 749-956, limits assumed); experiment: as above
T2 construct: domain: WHEP domain; also called 글루타밀-프로릴-tRNA 합성효소
T2 sequence (looked up): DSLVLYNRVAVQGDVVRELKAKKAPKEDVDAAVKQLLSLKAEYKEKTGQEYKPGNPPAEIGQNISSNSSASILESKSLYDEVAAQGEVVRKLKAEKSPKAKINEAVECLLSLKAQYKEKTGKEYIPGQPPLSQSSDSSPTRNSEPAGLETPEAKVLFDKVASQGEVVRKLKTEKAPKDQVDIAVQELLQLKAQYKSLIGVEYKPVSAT

[3] = molecular target: T3, WRS (Tryptophanyl-tRNA synthetase), purified recombinant (UniProt P23381 1-471, limits assumed); experiment: as above
T3 construct: also called 트립토파닐-tRNA 합성효소
T3 sequence (looked up): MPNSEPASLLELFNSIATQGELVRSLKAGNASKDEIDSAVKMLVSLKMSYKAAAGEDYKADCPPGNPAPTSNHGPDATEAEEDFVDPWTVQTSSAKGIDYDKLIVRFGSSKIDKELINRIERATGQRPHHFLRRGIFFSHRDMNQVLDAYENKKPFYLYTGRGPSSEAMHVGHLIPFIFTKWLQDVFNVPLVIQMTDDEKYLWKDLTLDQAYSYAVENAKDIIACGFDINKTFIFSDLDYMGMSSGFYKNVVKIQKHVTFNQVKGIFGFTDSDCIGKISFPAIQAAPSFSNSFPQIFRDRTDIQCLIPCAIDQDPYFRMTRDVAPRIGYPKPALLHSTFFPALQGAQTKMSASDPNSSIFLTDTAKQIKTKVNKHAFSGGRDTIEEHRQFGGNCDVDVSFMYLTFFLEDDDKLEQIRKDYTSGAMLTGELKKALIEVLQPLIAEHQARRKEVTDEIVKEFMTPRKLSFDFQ

[4] = molecular target: T4, HRS (Histidyl-tRNA synthetase), purified recombinant (UniProt P12081 1-509, limits assumed); experiment: as above
T4 construct: also called 히스티딜-tRNA 합성효소
T4 sequence (looked up): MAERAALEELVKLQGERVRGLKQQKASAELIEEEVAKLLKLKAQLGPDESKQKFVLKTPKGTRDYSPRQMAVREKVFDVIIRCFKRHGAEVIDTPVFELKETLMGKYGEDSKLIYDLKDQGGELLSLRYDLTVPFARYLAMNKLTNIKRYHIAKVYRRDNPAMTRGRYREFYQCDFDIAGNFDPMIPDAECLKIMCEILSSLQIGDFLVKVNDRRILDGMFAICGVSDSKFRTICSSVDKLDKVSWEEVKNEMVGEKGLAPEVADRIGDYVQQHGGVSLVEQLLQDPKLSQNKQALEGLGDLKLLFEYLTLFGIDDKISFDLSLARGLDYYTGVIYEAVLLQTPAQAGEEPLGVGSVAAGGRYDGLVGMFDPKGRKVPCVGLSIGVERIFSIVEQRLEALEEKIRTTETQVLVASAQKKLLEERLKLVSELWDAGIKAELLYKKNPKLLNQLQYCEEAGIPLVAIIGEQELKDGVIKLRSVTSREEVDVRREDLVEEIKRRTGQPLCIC

[5] = molecular target: T5, AIMP1 (Aminoacyl-tRNA-synthetase-interacting multifunctional protein 1), purified recombinant (UniProt Q12904 1-312, limits assumed); experiment: as above
T5 construct: also called AIMP1(p43); p43
T5 sequence (looked up): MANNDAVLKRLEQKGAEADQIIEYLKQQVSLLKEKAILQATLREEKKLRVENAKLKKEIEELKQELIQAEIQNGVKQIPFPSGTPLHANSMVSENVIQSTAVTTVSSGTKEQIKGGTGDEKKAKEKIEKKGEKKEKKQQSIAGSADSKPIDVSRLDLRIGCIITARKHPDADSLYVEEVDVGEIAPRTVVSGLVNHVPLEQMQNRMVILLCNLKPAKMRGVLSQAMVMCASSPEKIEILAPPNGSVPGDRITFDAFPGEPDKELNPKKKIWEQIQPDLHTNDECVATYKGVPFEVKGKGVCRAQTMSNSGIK

[6] = molecular target: T6, AIMP3 (Aminoacyl-tRNA-synthetase-interacting multifunctional protein 3), purified recombinant (UniProt O43324 1-174, limits assumed); experiment: as above
T6 construct: also called AIMP3(p18); p18
T6 sequence (looked up): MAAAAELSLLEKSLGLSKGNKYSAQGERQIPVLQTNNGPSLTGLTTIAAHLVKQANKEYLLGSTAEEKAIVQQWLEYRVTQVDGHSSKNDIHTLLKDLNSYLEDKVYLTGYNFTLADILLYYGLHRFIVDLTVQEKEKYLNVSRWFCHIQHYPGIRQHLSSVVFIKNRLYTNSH

[7] = molecular target: T7, CRS (Cysteinyl-tRNA synthetase), purified recombinant antigen (human, UniProt P49589 1-748, limits assumed); experiment: SPR (ProteOn XPR36), CRS amine-coupled on GLC chip, scFv 500-30 nM as analyte, 25 C
T7 construct: also called CRS 항원; 재조합 CRS 표준물질
T7 sequence (looked up): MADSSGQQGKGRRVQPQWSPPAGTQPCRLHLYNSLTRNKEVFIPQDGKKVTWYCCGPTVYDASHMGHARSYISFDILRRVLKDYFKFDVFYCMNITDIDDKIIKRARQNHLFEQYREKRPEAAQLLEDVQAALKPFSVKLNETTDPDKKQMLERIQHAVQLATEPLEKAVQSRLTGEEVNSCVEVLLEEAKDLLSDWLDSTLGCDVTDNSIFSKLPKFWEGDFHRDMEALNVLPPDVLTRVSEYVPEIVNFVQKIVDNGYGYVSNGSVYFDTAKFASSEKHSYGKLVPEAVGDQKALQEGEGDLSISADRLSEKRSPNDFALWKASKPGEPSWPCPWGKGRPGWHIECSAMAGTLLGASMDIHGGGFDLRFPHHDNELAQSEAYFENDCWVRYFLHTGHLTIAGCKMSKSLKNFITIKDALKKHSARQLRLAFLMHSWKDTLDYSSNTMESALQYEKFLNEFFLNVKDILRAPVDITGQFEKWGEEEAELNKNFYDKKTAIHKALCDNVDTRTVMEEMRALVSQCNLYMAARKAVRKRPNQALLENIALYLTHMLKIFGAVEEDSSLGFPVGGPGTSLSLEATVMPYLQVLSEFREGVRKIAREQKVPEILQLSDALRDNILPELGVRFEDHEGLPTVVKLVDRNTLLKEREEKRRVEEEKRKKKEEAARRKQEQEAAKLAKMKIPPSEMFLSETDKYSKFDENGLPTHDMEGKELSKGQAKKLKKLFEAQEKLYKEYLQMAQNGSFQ

교차 반응성 (cross-reactivity) [1]: ≤ 10%
교차 반응성 (cross-reactivity) [2]: ≤ 10%
교차 반응성 (cross-reactivity) [3]: ≤ 10%
교차 반응성 (cross-reactivity) [4]: ≤ 10%
교차 반응성 (cross-reactivity) [5]: ≤ 10%
교차 반응성 (cross-reactivity) [6]: ≤ 10%
Kd [7]: 60 nM
B1: anti-CRS scFv Biocon-K1 (scFv)
scFv: EVQLLESGGGLVQPVGSLRLSCAASGFTFSNYAMSWVRQAPGKGLEWVSWIYSKGRSTYYGDSAKGRFTISRDNSKNTLYLQMNSLRAEDTAVYYCAKRDNAFDYWGQGTLVTVSSGGGGSGGGGSGGGGSQSVLTQPPSASGTPGQRVTISCSGSSSNIGNNYVYWYQQLPGTAPKLLIYADSQRPSGVPDRFSGSKSGTSASLAISGLRSEDEADYYCGAWDSSLNGYVFGGGTKLTVL
notes: It was expressed from pComb3X in the E. coli periplasm, purified on Ni-NTA and detected with anti-HA; Human VH3-23/VL1g framework; also called 항 CRS scFv 항체; 본 발명의 항체

— patent KR20160093503A (dated 2016)
